This is an account of results in the supplement of paper PMC12042874.

± gives the uncertainty stated by the source.

The series can be described thus: amyloid nucleation score (Sup35N fusion, yeast selection) (log enrichment); library NNK1; higher = more nucleation; inactive = no reads after selection. Summed up:
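Using DiMSum, nucleation scores were taken as the log enrichment of output over input reads, centred on the mode score of non-aggregating sequences. The input and output reads came from Illumina sequencing of plasmid inserts, with sequences under 100 input reads excluded. The yeast were psi-negative, expressed Sup35N fused to peptides of 20 random codons, were induced with 100 μM copper sulfate for 24 hours, and were grown 7 days at 30°C on medium lacking adenine and uracil.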
In the case of IIIEVSQTDTV, the amyloid nucleation score was -0.292 ± 0.79.

In the case of TYSEVRGYLLSRFAEVIDS, the amyloid nucleation score result was “inactive”.

With VHASYIVRIRHLSGILEGAV, the amyloid nucleation score is 0.369 ± 0.46.

HVHNYNFIFAVWIHP displayed an amyloid nucleation score of 5.87 ± 0.062.

The substance TRHFVTVFGCVDNRVEYLNG gave an amyloid nucleation score of 3.22 ± 0.1.

With LRAWMSVASDNGLLMFCRNH, the amyloid nucleation score was -0.324 ± 0.46.

As for ISSQFGAKTIFPRSVPPQAI, the amyloid nucleation score was -0.562 ± 0.35.

Turning to GRMAGMFWNCGGCMEMDSVC, the amyloid nucleation score came to 1.14 ± 0.68.

Take VEDAIDACKFNCDSIDMTTD: the amyloid nucleation score is -0.206 ± 0.75.

GRTAQAVRGGRAVVYAGLKL: the amyloid nucleation score is -0.157 ± 0.36.

As for MCVILVELYQRGSWYTRKVM, the amyloid nucleation score was -0.206 ± 1.1.

Take GLNALSFNQV: the amyloid nucleation score was -0.383 ± 0.48.

Regarding ISSWTHVW, the amyloid nucleation score worked out at 1.23 ± 0.85.

Substance SCACRYSDLVWVINSLRTVA returned an amyloid nucleation score of 0.46 ± 0.83.

Consider RSRLLSFGVNGGWYIKMLIS, for which the amyloid nucleation score is -0.028 ± 0.61.

With YYTCGMYPIYRCCLRTMYSA, the amyloid nucleation score is -0.494 ± 0.22.

Substance LCGDAPREDYSHGYVLNQVG came in with an amyloid nucleation score of 0.352 ± 0.78.

Substance TIVGWSITIVRLHSFIFFNG gave an amyloid nucleation score of 0.021 ± 0.35.

In the case of SLPVLCASRYHLHYRMGFSG, the amyloid nucleation score amounted to 1 ± 0.69.

GVCKTYSIDKAPI displayed an amyloid nucleation score of 0.823 ± 0.51.

As to DCKLGISGIDLVNRFLYPCM, the amyloid nucleation score is 1.33 ± 0.84.

Take WRMVAIWKNLD: the amyloid nucleation score is -0.013 ± 0.56.

In the case of GARYVLYMLT, the amyloid nucleation score is -0.85 ± 0.88.

For the substance VPRVYMFKFGIILFFYMHKA, the amyloid nucleation score was -0.273 ± 0.3.

The substance RTVTWEMQKVDWSLWSCRWL showed an amyloid nucleation score of 2.56 ± 0.17.

As to YLRRSGMLAFSSSHHR, the amyloid nucleation score came to 1.15 ± 0.4.

As for AGHSCQSTMTGCYTFHSYVW, the amyloid nucleation score was -0.102 ± 0.49.

Substance VVLPRLRGNLVCDEIES displayed an amyloid nucleation score of 2.07 ± 0.53.

Turning to HALEKLDKFRFTAS, the amyloid nucleation score turned out to be 0.484 ± 0.64.

With HSSDLRAFLTDTFSRFYRIG, the amyloid nucleation score worked out at 0.911 ± 0.8.

Turning to TALESFRHCLVQSNPGSQVV, the amyloid nucleation score was -0.217 ± 0.5.

With KSSYLFMTSWPYWVRGMSYA, the amyloid nucleation score stood at 0.01 ± 0.46.

Substance LVVAVW registered an amyloid nucleation score of 0.269 ± 0.35.

Take SDELVQSTASGLFYASMGFK: the amyloid nucleation score stood at 1.75 ± 0.76.

Turning to HINFIYRLRSFLQSCKNFSS, the amyloid nucleation score is -1.23 ± 2.1.

Turning to MYASWSVF, the amyloid nucleation score was -0.223 ± 0.34.

On to GPFSDVAGQKVRCGRLVATR, for which the amyloid nucleation score is -0.212 ± 0.66.

For NLPSSKKVLPCFFLRSIYGC, the amyloid nucleation score came out at 0.9 ± 0.4.

Regarding LFFLLLNHRAVVVLLWCHFT, the amyloid nucleation score was -1.19 ± 0.91.

For the substance IAVKQFSRPPVFYIYSSLEC, the amyloid nucleation score was 0.642 ± 0.62.

Take ISYVSVS: the amyloid nucleation score is 0.073 ± 0.41.

For SNKRNYRLE, the amyloid nucleation score stood at 0.401 ± 0.62.

Take SNEVVKFKWSCIPETCSRVW: the amyloid nucleation score stood at 0.429 ± 0.61.

Regarding MSRMFRVLHRVLSSW, the amyloid nucleation score is -0.538 ± 1.2.

Turning to EMYKTRAFLSRKYMRHLLFN, the amyloid nucleation score is -0.316 ± 0.39.

Take RHLMLVKYVFGSRELGL: the amyloid nucleation score turned out to be 0.169 ± 0.25.

AANCTMMFKKPSWNVTRERV yielded an amyloid nucleation score of 0.26 ± 0.34.

KLVDAGFVD came in with an amyloid nucleation score of 0.759 ± 0.35.

Take GCYQYWCRSFHVGEIPVP: the amyloid nucleation score is -0.003 ± 1.1.

For WFWYIYM, the amyloid nucleation score was determined as 1.54 ± 0.19.

In turn, NDTVWVVWMLKELSLYVELV came in with an amyloid nucleation score of 0.329 ± 0.53.

In turn, MTGINYRAVRCAEGCRASRR had an amyloid nucleation score of 0.216 ± 0.29.

Regarding VRHLRR, the amyloid nucleation score is -0.496 ± 0.55.

VLSWWTTNPSVMENTCCPWS displayed an amyloid nucleation score of 2.09 ± 0.32.

As to LSVVVDRVLDNCLIGLYNAG, the amyloid nucleation score was determined as 0.174 ± 0.28.

With VIYFLRYHLFNSLVSPHNRR, the amyloid nucleation score entry was “inactive”.

In the case of DSCRWGFLRVRVLGFSSVWY, the amyloid nucleation score was -0.28 ± 0.49.

Substance MNPTFILRTGSRGGDYWS had an amyloid nucleation score of 0.206 ± 0.52.

In the case of FFPTEYHALENLLHADVRVK, the amyloid nucleation score was -0.682 ± 0.36.

For CGAYRMWQYKASRGTHWPYT, the amyloid nucleation score is -0.182 ± 0.6.

On to LPWGRTAFENFFVTMFFSKC, for which the amyloid nucleation score is -0.994 ± 1.5.

Turning to FLSLFVSVV, the amyloid nucleation score is -0.18 ± 0.97.

On to IVCFM, for which the amyloid nucleation score was -0.377 ± 0.6.

Take NDHDGEFDD: the amyloid nucleation score turned out to be 0.239 ± 0.57.

Turning to AFDLTEVQFLRVVKS, the amyloid nucleation score is -0.259 ± 0.44.

On to GGDGVKVVIGLHGWFASGYL, for which the amyloid nucleation score came out at 1.24 ± 0.3.

On to CCGGECLRVYRIMLGTVECT, for which the amyloid nucleation score worked out at 0.329 ± 0.28.

For the substance PDWCLMVLLCGLVCIYVDLN, the amyloid nucleation score worked out at 0.22 ± 1.1.

Regarding TISGAVRGCGGCSIRWLMSL, the amyloid nucleation score is -0.663 ± 0.33.

With VGLDLALSYHFAQG, the amyloid nucleation score was 4.8 ± 0.087.

For SYLGCVHWSRRTDLVTFFDF, the amyloid nucleation score came to 0.495 ± 0.27.

For FEGNQDIYMVRTWKDKMRLV, the amyloid nucleation score is -0.107 ± 0.45.

Consider QLELWVSLRCISWLQILRIL, for which the amyloid nucleation score was 1.06 ± 0.53.

CIISGMLWLAMKRTMGIELW came in with an amyloid nucleation score of 2.88 ± 0.18.

The substance RNSMQILASLNNMDQRPLWR gave an amyloid nucleation score of 1.51 ± 0.51.

In the case of IARLHT, the amyloid nucleation score result is “inactive”.

On to VQIDK, for which the amyloid nucleation score is 0.514 ± 0.33.

As for SFNVKVAHGLIRFSPDICYQ, the amyloid nucleation score was 4.47 ± 0.13.

Take NSGRVNTLWFCLSDTMLVTS: the amyloid nucleation score entry is “inactive”.

RFYIMYLSGCAKTSFCGFVS yielded an amyloid nucleation score of 6.4 ± 0.079.

The substance FVLHCCRLRGHTSSSHWLGA gave an amyloid nucleation score of 0.245 ± 0.43.

Consider NDRSFYQITKILHPRDASQN, for which the amyloid nucleation score is -1.08 ± 0.55.

With EVCCNVKTL, the amyloid nucleation score stood at 0.431 ± 0.28.

Take DREIAMVWHLSYIIFYFSES: the amyloid nucleation score is -0.993 ± 0.33.

On to YIIVFDVNWFVKFGCFPRGS, for which the amyloid nucleation score entry was “inactive”.

As for LEGITELWRVMSYLMMTMVR, the amyloid nucleation score is -0.457 ± 1.1.

For the substance KWSVSV, the amyloid nucleation score was -0.32 ± 1.3.

On to SKLFLGGLPCTQYWPRMCMV, for which the amyloid nucleation score was -0.356 ± 0.64.

LRKWSERGPWP: the amyloid nucleation score came out at 0.048 ± 0.46.

As for SRTICGSEILTSKKTRFHAS, the amyloid nucleation score is -0.702 ± 1.7.

With SNSAFCNGSVMCVEVSLRHA, the amyloid nucleation score amounted to 7.037 ± 0.062.

Regarding SIRWVIHDRVSRVYDVLRCG, the amyloid nucleation score is 0.944 ± 0.54.

Consider SLVMGVYRRQCRGNPRAMSK, for which the amyloid nucleation score was determined as 1.21 ± 0.44.

Regarding YMIWTIFNMVSIGRPQFLRL, the amyloid nucleation score was -0.716 ± 0.56.

As to VDNMLPFMGDYWDLFYGFLL, the amyloid nucleation score was -0.217 ± 0.31.

As for QFRGLDLCLRIRRLVAYTGI, the amyloid nucleation score was 0.285 ± 0.64.

As to LWLWHELHAIYMGMRGVSVL, the amyloid nucleation score entry was “inactive”.

In the case of MIWVWNRYIIPYFRFCGATL, the amyloid nucleation score was found to be 0.268 ± 1.2.

For the substance GSDVREWLVQQSKSMFLWVW, the amyloid nucleation score was -0.226 ± 0.47.

With SQVGYGSRDLEFTWWCGGNG, the amyloid nucleation score is -0.278 ± 0.58.

As for LCFSGD, the amyloid nucleation score is -0.352 ± 0.99.

As to GGSLVSGSFDKYSYSKYRLW, the amyloid nucleation score is -0.128 ± 1.4.

In the case of VCLQW, the amyloid nucleation score was determined as 0.386 ± 0.64.

LPVHGMFWSVR: the amyloid nucleation score was -0.157 ± 0.78.

Consider FGMWYSVRISTSLVYVMGVL, for which the amyloid nucleation score is -0.23 ± 0.28.

Consider EVSLLSFLE, for which the amyloid nucleation score came to 0.68 ± 0.39.

In the case of SVANGALSRLAYIKRYRVWW, the amyloid nucleation score was determined as 0.522 ± 0.45.

On to VDLDSVR, for which the amyloid nucleation score is -0.236 ± 0.48.

As for NAYRYMCRCGFLSLRAGWRV, the amyloid nucleation score entry is “inactive”.

HNYVGDTLGVMSCWPTTRFP registered an amyloid nucleation score of 0.087 ± 0.87.

For the substance QEPCGW, the amyloid nucleation score was -0.172 ± 0.29.

With NFVIFKRFFNFHKNWNGWSR, the amyloid nucleation score was 3.8 ± 0.07.

Take SNDVAFMAIKKHRTLSYQTD: the amyloid nucleation score came to 0.165 ± 0.47.

Regarding VSKLLCLRMHMLKLW, the amyloid nucleation score is -0.48 ± 0.48.

In turn, LLYLCYIRCI displayed an amyloid nucleation score of 0.952 ± 0.65.

Regarding PSTRRVGDWDFLTSSTGRTM, the amyloid nucleation score was -0.403 ± 0.35.

KRLWLKLSTVE returned an amyloid nucleation score of 0.32 ± 0.32.

With SYAMLCIYVGYFIFLNSRMS, the amyloid nucleation score result is “inactive”.

Consider KLWPSMSFLNCLWCIRERQL, for which the amyloid nucleation score stood at 4.48 ± 0.081.

Regarding SRSRRANYGLCDIRYYNSFE, the amyloid nucleation score amounted to 0.862 ± 0.43.

In turn, ILTRVV returned an amyloid nucleation score of 0.37 ± 1.1.

Consider WISKWHYGAQSSARSKYARI, for which the amyloid nucleation score turned out to be 0.864 ± 0.47.

Take DLYEAMSRNLADYRAVWGLS: the amyloid nucleation score result was “inactive”.

On to VYAYTRY, for which the amyloid nucleation score stood at 0.194 ± 0.68.

As to LDETIQSNRDTHLCQFA, the amyloid nucleation score was -0.29 ± 0.56.

In the case of LMRHYSHMFYIRHAVLLTNP, the amyloid nucleation score amounted to 0.255 ± 0.36.

LGYKSGVFLWGFRFHP: the amyloid nucleation score was -1.35 ± 2.1.

Turning to NLSSSRSVVKNLTFQMWNTS, the amyloid nucleation score worked out at 4.45 ± 0.063.

For EVCWNSCMVADSVSVISNPA, the amyloid nucleation score is -0.231 ± 0.27.

For the substance TFHWMKDAALSQSSVKRTMA, the amyloid nucleation score is 0.359 ± 0.59.

With GATIIKSFLDRNSTTWLSLV, the amyloid nucleation score was -0.451 ± 0.63.

Substance VRCIVTERLTLAMDW returned an amyloid nucleation score of 0.199 ± 0.47.

Take RRTLSSGVSLYCYPKLGVAR: the amyloid nucleation score is -0.24 ± 0.53.

On to ERTICSVITMNHGSSAYQGS, for which the amyloid nucleation score is -0.081 ± 0.47.

On to KGNRGQ, for which the amyloid nucleation score result is “inactive”.

For the substance SSGFYLWCALYRSRGHCNDY, the amyloid nucleation score was 1.6 ± 0.18.

In the case of ARYGVSGHAYDTNPRRYFGQ, the amyloid nucleation score is -0.903 ± 2.4.

In the case of HKRAEKHNHFITWSIQSLRA, the amyloid nucleation score came out at 0.653 ± 0.33.

For SGYLRKRYTRRDC, the amyloid nucleation score entry was “inactive”.
